The source of these data is article PMC2441799 (Nucleic Acids Research, 2008).

The test concerns the target full-length JDP2 protein fused to the yeast GAL4 DNA-binding domain (GAL4-DBD-JDP2) (rat, UniProt Q78E65 1-163). Briefly: two-hybrid.

full-length JDP2 protein fused to the yeast GAL4 DNA-binding domain (GAL4-DBD-JDP2), sequence (Q78E65 whole entry, the tested form may be a part): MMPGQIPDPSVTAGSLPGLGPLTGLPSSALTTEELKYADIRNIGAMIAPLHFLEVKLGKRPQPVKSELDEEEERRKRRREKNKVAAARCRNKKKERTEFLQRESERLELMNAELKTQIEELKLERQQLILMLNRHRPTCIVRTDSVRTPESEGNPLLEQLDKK

B1: wild-type CHOP10 (expression plasmid, in NIH3T3 cells) (natural protein)
chain: MAAESLPFSFGTLSSWELEAWYEDLQEVLSSDENGGTYVSPPGNEEEESKIFTTLDPASLAWLTEEEPEPAEVTSTSQSPHSPDSSQSSLAQEEEEEDQGRTRKRKQSGHSPARAGKQRMKEKEQENERKVAQLAEENERLKQEIERLTREVEATRRALIDRMVNLHQA
For B1, the “fold potentiation of the 5 × UAS luciferase reporter (two-hybrid)” value was 25 fold.
